Measured values as given in the RNAGym collection of RNA variant scans (doi:10.1093/molbev/msab373).

B1: Azoarcus group I ribozyme (parent)
chain: GUGCCUUGCGCCGGGAAACCACGCAAGGGAUGGUGUCAAAUUCGGCGAAACCUAAGCGCCCGCCCGGGCGUAUGGCAACGCCGAGCCAAGCUUCGGCGCCUGCGCCGAUGAAGGUGUAGAGACUAGACGGCACCCACCUAAGGCAAACGCUAUGGUGAAGGCAUAGUCCAGGGAGUGGCGAAAGUCACACAAACCGG

Variants of: B1
Assay: reverse-splicing fitness (ratio to wild type); higher = more active; in vitro selection; Mg2+ level not given
Procedure, shortened: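 An in vitro group I ribozyme library with randomized positions was T7-transcribed and gel-purified. In triplicate, 10 pmol RNA in EPPS pH 7.5 was reacted with 50 pmoles of a 30-nt RNA substrate for 1 h at 37 °C across several added MgCl2 levels (1–48 mM), then stopped with EDTA. Products were reverse transcribed from a substrate-complementary primer, PCR-amplified and sequenced (HiSeq 4000). Fitness is a variant's read proportion after selection over that before, normalised to wild type.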

Variant | reverse-splicing fitness
GUGCCUUGCGCCGGGAAACCACGCAAGGGAUGGUGUCAAAUUCGGCGAAACCUAAGCGCCCGCCCGGGCGUAUGGCAACGCCGAGCCAAGCUUCGGCGCCUGCGCCGAUGGAGGUGUAGGGACUAGACGGCACCCACCUAAGGCAAACGUUAUGGUGAAGGCAUAGUCGAGGGAGGGGCGAAAGUCACACAAACCGG | 0.00531
GUGCCUUGCGCCGGGAAACCACGCAAGGGAUGGUGUCAAAUUCGGCGAAACCUAAGCGCCCGCCCGGGCGUAUGGCAACGCCGAGCCAAGCUUCGGCGCCUGCGCCGAUGGAGGUGUAGGGACUAGACGGCACCCACCUAAGGCAAACGUUAUGGUGAAGGCAUAGUCUAGGGAGUGGCGAAAGUCACACAAACCGG | 0.142
GUGCCUUGCGCCGGGAAACCACGCAAGGGAUGGUGUCAAAUUCGGCGAAACCUAAGCGCCCGCCCGGGCGUAUGGCAACGCCGAGCCAAGCUUCGGCGCCUGCGCCGAUGGAGGUGUAGGGACUAGACGGCACCCACCUAAGGCAAACGUUAUGGUGAAGGCAUAGUCUAGGGAGAGGCGAAAGUCACACAAACCGG | 0.0545
GUGCCUUGCGCCGGGAAACCACGCAAGGGAUGGUGUCAAAUUCGGCGAAACCUAAGCGCCCGCCCGGGCGUAUGGCAACGCCGAGCCAAGCUUCGGCGCCUGCGCCGAUGGAGGUGUAGGGACUAGACGGCACCCACCUAAGGCAAACGUUAUGGUGAAGGCAUAGUCUAGGGAGCGGCGAAAGUCACACAAACCGG | 0.0607
GUGCCUUGCGCCGGGAAACCACGCAAGGGAUGGUGUCAAAUUCGGCGAAACCUAAGCGCCCGCCCGGGCGUAUGGCAACGCCGAGCCAAGCUUCGGCGCCUGCGCCGAUGGAGGUGUAGGGACUAGACGGCACCCACCUAAGGCAAACGUUAUGGUGAAGGCAUAGUCUAGGGAGGGGCGAAAGUCACACAAACCGG | 0.00845
GUGCCUUGCGCCGGGAAACCACGCAAGGGAUGGUGUCAAAUUCGGCGAAACCUAAGCGCCCGCCCGGGCGUAUGGCAACGCCGAGCCAAGCUUCGGCGCCUGCGCCGAUGGAGGUGUAGGGACUAGACGGCACCCACCUAAGGCAAACGUUAUGGUGAAGGCAUAGUCCAGGGAGAGGCGAAAGUCACACAAACCGG | 0.0505
GUGCCUUGCGCCGGGAAACCACGCAAGGGAUGGUGUCAAAUUCGGCGAAACCUAAGCGCCCGCCCGGGCGUAUGGCAACGCCGAGCCAAGCUUCGGCGCCUGCGCCGAUGGAGGUGUAGGGACUAGACGGCACCCACCUAAGGCAAACGUUAUGGUGAAGGCAUAGUCCAGGGAGCGGCGAAAGUCACACAAACCGG | 0.0801
GUGCCUUGCGCCGGGAAACCACGCAAGGGAUGGUGUCAAAUUCGGCGAAACCUAAGCGCCCGCCCGGGCGUAUGGCAACGCCGAGCCAAGCUUCGGCGCCUGCGCCGAUGGAGGUGUAGGGACUAGACGGCACCCACCUAAGGCAAACGUUAUGGUGAAGGCAUAGUCCAGGGAGGGGCGAAAGUCACACAAACCGG | 0.00879
GUGCCUUGCGCCGGGAAACCACGCAAGGGAUGGUGUCAAAUUCGGCGAAACCUAAGCGCCCGCCCGGGCGUAUGGCAACGCCGAGCCAAGCUUCGGCGCCUGCGCCGAUGGAGGUGUAGGGACUAGACGGCACCCACCUAAGGCAAACGCUAUGGUGAAGGCAUAGUCAAGGGAGUGGCGAAAGUCACACAAACCGG | 0.165
GUGCCUUGCGCCGGGAAACCACGCAAGGGAUGGUGUCAAAUUCGGCGAAACCUAAGCGCCCGCCCGGGCGUAUGGCAACGCCGAGCCAAGCUUCGGCGCCUGCGCCGAUGGAGGUGUAGGGACUAGACGGCACCCACCUAAGGCAAACGCUAUGGUGAAGGCAUAGUCAAGGGAGAGGCGAAAGUCACACAAACCGG | 0.0455
GUGCCUUGCGCCGGGAAACCACGCAAGGGAUGGUGUCAAAUUCGGCGAAACCUAAGCGCCCGCCCGGGCGUAUGGCAACGCCGAGCCAAGCUUCGGCGCCUGCGCCGAUGGAGGUGUAGGGACUAGACGGCACCCACCUAAGGCAAACGCUAUGGUGAAGGCAUAGUCAAGGGAGCGGCGAAAGUCACACAAACCGG | 0.0737
GUGCCUUGCGCCGGGAAACCACGCAAGGGAUGGUGUCAAAUUCGGCGAAACCUAAGCGCCCGCCCGGGCGUAUGGCAACGCCGAGCCAAGCUUCGGCGCCUGCGCCGAUGGAGGUGUAGGGACUAGACGGCACCCACCUAAGGCAAACGCUAUGGUGAAGGCAUAGUCAAGGGAGGGGCGAAAGUCACACAAACCGG | 0.00449
GUGCCUUGCGCCGGGAAACCACGCAAGGGAUGGUGUCAAAUUCGGCGAAACCUAAGCGCCCGCCCGGGCGUAUGGCAACGCCGAGCCAAGCUUCGGCGCCUGCGCCGAUGGAGGUGUAGGGACUAGACGGCACCCACCUAAGGCAAACGCUAUGGUGAAGGCAUAGUCGAGGGAGUGGCGAAAGUCACACAAACCGG | 0.321
GUGCCUUGCGCCGGGAAACCACGCAAGGGAUGGUGUCAAAUUCGGCGAAACCUAAGCGCCCGCCCGGGCGUAUGGCAACGCCGAGCCAAGCUUCGGCGCCUGCGCCGAUGGAGGUGUAGGGACUAGACGGCACCCACCUAAGGCAAACGCUAUGGUGAAGGCAUAGUCGAGGGAGAGGCGAAAGUCACACAAACCGG | 0.09
GUGCCUUGCGCCGGGAAACCACGCAAGGGAUGGUGUCAAAUUCGGCGAAACCUAAGCGCCCGCCCGGGCGUAUGGCAACGCCGAGCCAAGCUUCGGCGCCUGCGCCGAUGGAGGUGUAGGGACUAGACGGCACCCACCUAAGGCAAACGCUAUGGUGAAGGCAUAGUCGAGGGAGCGGCGAAAGUCACACAAACCGG | 0.119
